According to patent publication US6491893B1, “Compounds for targeting and imaging infection and inflammation” (Biostream, Inc., priority 1999, dated 2002):
Where two headings read alike, the source gives them in different places.

Legend:
[1] = cited from earlier work
[2] = cited from earlier work; remark: listed apart in the source
[3] = tested on: intramuscular bacterial infections (E. coli, left posterior thigh); assay: Gamma camera imaging, T/B ratios from ROI analysis of scintigrams (Example 1, Table 1); type: in vivo, New Zealand white rabbits; conditions: for average Target:Background (T/B) ratio, gamma camera images: Average of 2 rabbits
Method: (§1) In order to label G-CSF with radioindium (^111In), G-CSF was conjugated with diethylenetriaminepentacetic acid (DTPA) via the active ester. DTPA conjugated G-CSF was labeled with In-111 and injected into rabbits bearing intramuscular bacterial infections. Two New Zealand white rabbits weighing approximately 2-3 kg were injected in their left posterior thigh with a 0.5 ml suspension of ˜10^9 E. coli for infection imaging and biodistribution studies. Animals were injected with In-111-DTPA-G-CSF at 24 hr after bacterial injection, when the animals were judged to have moderate infections by palpation.
[…], the animals were anesthetized with ketamine/xylazine (15.0 and 1.5 mg/kg) and scintigrams were acquired using a large field of view gamma camera equipped with a parallel hole medium energy collimator. Regions-of-interest (ROI's) were drawn over the area of infection and the contralateral normal muscle and target-to-background (T/B) ratios were calculated. After acquiring the final images, the animals were sacrificed with an over dose of sodium pentobarbital and biodistribution was determined. For comparison with the imaging results, infected to normal muscle and pus to normal muscle ratios were calculated from biodistribution data.

[4] = tested on: intramuscular bacterial infections (E. coli, left posterior thigh); type: in vivo, New Zealand white rabbits; conditions: from biodistribution data
Method: as §1
At 4 and 18 hours following injection of the In-111-DTPA-G-CSF, the animals were anesthetized with ketamine/xylazine (15.0 and 1.5 mg/kg) and scintigrams were acquired using a large field of view gamma camera equipped with a parallel hole medium energy collimator. Regions-of-interest (ROI's) were drawn over the area of infection and the contralateral normal muscle and target-to-background (T/B) ratios were calculated. After acquiring the final images, the animals were sacrificed with an over dose of sodium pentobarbital and biodistribution was determined. For comparison with the imaging results, infected to normal muscle and pus to normal muscle ratios were calculated from biodistribution data.

[5] = after intravenous administration over 30 min
[6] = Average, 18 Hours Post Injection
[7] = Rabbit #1, 18 Hours Post Injection
[8] = Rabbit #2, 18 Hours Post Injection

GM-CSF: colony stimulating factor promoting growth of progenitors of several myeloid lines
distribution half-life (T sub ½ alpha) [1, 5]: 5 to 15 min
elimination phase (T sub ½ Beta) [1, 5]: 1 to 9 h
time to peak serum concentration ([1]; after single subcutaneous bolus injections): ≤ 4 h
elimination half-life ([1]; single subcutaneous bolus injections, doses of 10 mμ g/kg): 174 min
serum concentration achieved ([1]; subcutaneous doses of 5-10 mμ g/kg, for 8-24 h): >= 10 ng/mL
time serum concentrations >=10 ng/mL are achieved ([1]; subcutaneous doses of 5-10 mμ g/kg): 8 to 24 h

B1: G-CSF: full length protein, polypeptide or peptide corresponding to natural G-CSF that binds to a CSF receptor (protein, UniProt P09919 31-207, looked up)
Granulocyte …: TPLGPASSLPQSFLLKCLEQVRKIQGDGAALQEKLVSECATYKLCHPEELVLLGHSLGIPWAPLSSCPSQALQLAGCLSQLHSGLFLYQGLLQALEGISPELGPTLDTLQLDVADFATTIWQQMEELGMAPALQPTQGAMPAFASAFQRRAGGVLVASHLQSFLEVSYRVLRHLAQP
serum concentration maintained ([2]; after doses of 5-10 μg/kg, for up to 16 h): > 10 ng/mL
time serum concentrations of >10 ng/mL are maintained ([2]; after doses of 5-10 mμ g/kg): up to 16 h
time C sub max values are maintained ([2]; after short (20-30 min) intravenous infusions): 30 to 60 min
estimated terminal half-life ([2]; after short intravenous infusions, doses up to 60 μg/kg): 45 to 432 min
serum concentration by 24 h ([2]; after single subcutaneous injections, by 24 h): < 10 % C sub max
time to peak serum concentration ([2]; after single subcutaneous injections): 4 to 6 h

B2: In-111-DTPA-GCSF: G-CSF conjugated with diethylenetriaminepentacetic acid (DTPA) via the active ester and labeled with In-111 (conjugate, UniProt P09919 31-207, looked up)
Granulocyte …: TPLGPASSLPQSFLLKCLEQVRKIQGDGAALQEKLVSECATYKLCHPEELVLLGHSLGIPWAPLSSCPSQALQLAGCLSQLHSGLFLYQGLLQALEGISPELGPTLDTLQLDVADFATTIWQQMEELGMAPALQPTQGAMPAFASAFQRRAGGVLVASHLQSFLEVSYRVLRHLAQP
modifications: DTPA conjugate labeled with In-111
T/B ratio calculated from ROI analysis of scintigrams ([3]; 3 hour after injection): 3.567
T/B ratio calculated from ROI analysis of scintigrams ([3]; 17 hours after injection): 11.87
average Target:Background (T/B) ratio, gamma camera images ([3]; 4 hours post injection): 3.567
average Target:Background (T/B) ratio, gamma camera images ([3]; 18 hours post injection): 11.87
Infected to normal tissue ratio from gamma camera images ([3]; Rabbit #1, 4 hours post injection): 3.359
Infected to normal tissue ratio from gamma camera images ([3]; Rabbit #1, 18 hours post injection): 8.643
Infected to normal tissue ratio from gamma camera images ([3]; Rabbit #2, 4 hours post injection): 3.775
Infected to normal tissue ratio from gamma camera images ([3]; Rabbit #2, 18 hours post injection): 15.10
localization at sites of infection (in words) ([3]; rabbits with E. coli infection): effective agent for localizing sites of infection
Infected/normal muscle ratio [4, 6]: 26.24
Pus/normal muscle ratio [4, 6]: 59.16
Infected/normal muscle #1 ratio [4, 7]: 36.89
Infected/normal muscle #2 ratio [4, 7]: 21.54
Infected/normal muscle #3 ratio [4, 7]: 20.11
Infected/normal muscle #4 ratio [4, 7]: 20.95
Infected/normal muscle #5 ratio [4, 7]: 15.63
Pus/normal muscle ratio [4, 7]: 23.56
Infected/normal muscle #1 ratio [4, 8]: 39.21
Infected/normal muscle #2 ratio [4, 8]: 26.17
Infected/normal muscle #3 ratio [4, 8]: 37.03
Infected/normal muscle #4 ratio [4, 8]: 28.44
Infected/normal muscle #5 ratio [4, 8]: 16.42
Pus/normal muscle ratio [4, 8]: 94.76
